Laboratory results taken from PMC3657558.

Target: CblC, full-length, His-tagged (UniProt Q9Y4U1)
Assay: native gel or EMSA

Sequence of UniProt Q9Y4U1 (Q9Y4U1 whole entry): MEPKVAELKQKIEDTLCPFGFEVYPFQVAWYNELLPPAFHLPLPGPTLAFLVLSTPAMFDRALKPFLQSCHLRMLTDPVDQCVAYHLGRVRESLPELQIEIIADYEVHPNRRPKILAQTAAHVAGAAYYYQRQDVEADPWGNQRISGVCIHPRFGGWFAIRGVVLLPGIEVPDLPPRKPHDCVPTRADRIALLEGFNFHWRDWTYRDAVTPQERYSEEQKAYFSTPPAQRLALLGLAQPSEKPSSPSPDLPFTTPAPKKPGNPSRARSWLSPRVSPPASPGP

stoichiometry N: 1 CblC:CblD
Substance: full-length CblD, N-terminal 6xHis-tagged (from UniProt Q9H3L0 39-296) (natural protein)
